Test results taken from US8796227B2, “Peptides for inhibiting chemokine binding to chemokine receptors” (Biokine Therapeutics Ltd., priority 2002, dated 2014).

Columns and labels:
Experiment in all cases: Biovalidation: laminar flow assay, chemokine and VCAM-1 activated adhesion of T cells
Format in all cases: cell-based
MIG = target: T1, MIG (Homo sapiens, UniProt Q07325); settings: T cell adhesion under flow, VCAM-1
T1 construct: purchased PeproTech, Inc. 300-26
T1 sequence (Q07325 23-125): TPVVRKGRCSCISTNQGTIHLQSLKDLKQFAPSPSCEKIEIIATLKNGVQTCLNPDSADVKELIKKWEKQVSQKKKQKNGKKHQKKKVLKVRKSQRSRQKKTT
Protocol: (§1) 50 ml blood was added to 10 ml Dextran (Dextran T-500 6% w/v) in PBS (phosphate buffer saline), and 7 ml citrate buffer (25 g citrate, 8 g citric acid in 500 ml PBS). The solution was incubated for 30 min at 25° C. 10 ml Ficoll 1077 (Sigma) was added to the bottom of the tube. The tube was then centrifuged at 2,000 rpm for 30 min, at 18° C., (with the brake mode of the centrifuge off). The interphase was collected and washed twice with 8 ml PBS-5% FCS (fetal calf serum), followed by centrifugation at 1,400 rpm, for 5 min, at 18° C. The cells were re-suspended in PBS-5% FCS at a concentration less than 10^8/ml. 2 ml of the cell solution were applied and incubated for 45 min at 25° C. on a Perspex Nylon wool column, which was pre-soaked with PBS-5% FCS. Each column was washed with 8 ml PBS-5% FCS and the cells (T-cells and erythrocytes) were eluted by 50 ml of 5 mM EDTA in PBS. A red pellet was obtained by centrifugation at 1,400 rpm, at 4° C., for 5 min, with the brake on. In order to perform lysis of the erythrocytes, the red pellet was re-suspended in 5 ml lysis-buffer (155 mM NH4Cl, 10 mM KHCO3, 0.1 mM EDTA, X0.1PBS) for 4 min, followed by immediate addition of 50 ml of PBS-EDTA.
(§2) Following centrifugation at 1,400 rpm, at 4° C., for 5 min with brake on, the pellet was washed again with 50 ml PBS-EDTA and re-centrifuged under the same conditions. A white pellet was obtained and re-suspended in RPMI/10% FCS/L-glutamine/sodium pyruvate/antibiotics at a concentration of 3^X10^6 cells/ml. The cells were incubated for 2 h at 37° C., followed by collection of the non-adherent cells. The cells were ready for use in experiments after overnight incubation at 37° C. […]
Laminar flow assays were performed as follows. Polystyrene plates (B.D) were coated with soluble VCAM-1 at 10 μg/ml in the presence of 2 μg/ml HSA carrier. The plates were washed three times with PBS and blocked with HSA (20 μg/ml in PBS) for 2 hrs at room temperature. Alternatively, washed plates were coated with 10 μg/ml MIG chemokine in PBS for 30 min at room temperature, before being blocked with HSA. The plates were assembled as the lower wall of a parallel wall flow chamber and mounted on the stage of an inverted microscope. The peptide, as described previously, (10 μg/ml) was allowed to settle on the substrate coated chamber wall for 10 min, at 37° C. and then washed. T cells (5×10^6/ml, purity >98%) were suspended in binding buffer, perfused into the chamber and allowed to settle on the substrate coated chamber wall for 1 min, at 37° C. Flow was initiated and increased in 2 to 2.5 fold increments every 5 sec. generating controlled shear stresses on the wall. Cells were visualized in a 20× objective of an inverted phase-contrast Diaphot Microscope (Nikon, Japan) and photographed with a long integration LIS-700 CCD video camera (Applitech; Holon, Israel), connected to a video recorder (AG-6730 S-VHS, Panasonic, Japan). The number of adherent cells resisting detachment by the elevated shear forces was determined after each interval by analysis of videotaped cell images, and was expressed as the percent of originally settled cells. All adhesion experiments were performed at least three times on multiple test fields.

IL-8 = target: T2, IL-8 (Homo sapiens, UniProt P10145); set-up: key to Level of Antagonistic Effect / Level of Effect: + 20%; ++ 50%; +++ 100%; − No effect; settings: VCAM-1
T2 construct: human IL-8, (72 amino acids) (Cat. No. 200-08M); purchased PeproTech, Inc. 200-08M
T2 sequence (P10145 28-99): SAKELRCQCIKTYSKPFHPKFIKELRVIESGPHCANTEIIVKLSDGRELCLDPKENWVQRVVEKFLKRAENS

Eotaxin = target: T3, Eotaxin (Homo sapiens, UniProt P51671)
T3 construct: purchased PeproTech, Inc. 300-21
T3 sequence (P51671 24-97): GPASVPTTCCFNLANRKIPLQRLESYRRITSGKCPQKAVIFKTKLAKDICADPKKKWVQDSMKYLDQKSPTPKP

SDF-1α = target: T4, SDF-1α (Homo sapiens, UniProt P48061)
T4 construct: purchased PeproTech, Inc. 300-28A
T4 sequence (P48061 22-89 limits assumed): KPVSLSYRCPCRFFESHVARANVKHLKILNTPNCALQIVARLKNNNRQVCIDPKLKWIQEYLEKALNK
Protocol: as §1, §2
Laminar flow assays were performed as follows. […] The number of adherent cells resisting detachment by the elevated shear forces was determined after each interval by analysis of videotaped cell images, and was expressed as the percent of originally settled cells. […]

[1] = T cell adhesion under flow, VCAM-1

QIPQMRILHPYG [BKT-P23]
Reduction of the activity of MIG (MIG): no effect
Level of Effect (IL-8; Chemokine checked IL-8, T cells, peptide 10 μg/ml): −
Abolishment of the activity of IL-8 (IL-8; T cell adhesion under flow): no effect
Kind of Effect (Eotaxin; Chemokine checked EOTAXIN): Antagonist
Level of Effect (Eotaxin; Chemokine checked Eotaxin, T cells, VCAM-1, peptide 10 μg/ml): +++ (+++ 100%)
Blocking of the activity of Eotaxin (Eotaxin; [1]): 100%
Kind of Effect (SDF-1α; Chemokine checked SDF-1α): Antagonist
Level of Effect (SDF-1α; Chemokine checked SDF-1α, T cells, VCAM-1, peptide 10 μg/ml): + (+ 20%)
Blocking of the activity of SDF-1α (SDF-1α; [1]): about 20%
